From patent US6485936

Target: GAL4-HSF2N96C238 (HSF2 deletion mutant fused with the yeast GAL4-BD derived from pM) (yeast; human) (UniProt P04386)
Assay: cell-based or functional assay

VP16-HSF2BP (HSF2BP fused with the VP16 transcriptional activation domain derived from pVP16) (from UniProt O75031 1-334)
luciferase reporter activity in two-hybrid assay in K562 cells (induction fold against control VP16): 11 fold
